± gives the uncertainty stated by the source.
Assay: protein stability index of a GFP-peptide fusion (yeast GPS) (PSI 1-4); higher = more stable; sorted into four equal gates, so the index is relative within each strain
Conditions: doa10∆
Procedure, shortened: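 The protein stability index of a peptide was calculated by multiplying its read frequency in each gate by that gate's number and adding the products. The peptides were tiled 17-residue stretches of yeast proteins, fused downstream of GFP on a Cherry-expressing plasmid and carried in yeast as a pooled library. Mid-log cultures in leucine-free medium were sorted into four equal gates by GFP/Cherry ratio, and each gate's plasmids were PCR-amplified and Illumina-sequenced.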

EALVQAFAFCIPVYCFS [YCG1] and EANWPLPVNIRRIIQNA [RPO21] are within error of each other in protein stability index: 1.68 ± 0.071 for the first, 1.77 ± 0.088 for the second.

EARLFNIWGTVRTNRFD [ECM29] and EAVKQAAKIIYLAHEDN [PRE10] are within error of each other in protein stability index: 2.61 ± 0.19 for the first, 2.75 ± 0.19 for the second.

First: EAVVDQDVQRTCILHGP [FAS1]
Second: ECFISMQSTSPAVKQWD [SWI1]
The protein stability index of the first is higher: 3.32 ± 0.11 for the first, 2.34 ± 0.083 for the second.

ECQVIAAEGLCKLFLAD [YCG1] and EDEEKILDNTENYDDTE [DSN1] are within error of each other in protein stability index: 3.29 ± 0.066 for the first, 3.37 ± 0.088 for the second.

EDEMMHEEDQKTNIIEK [RPN12] and EDETLRRIKEAEENLKK [YIL149C/MLP2] are within error of each other in protein stability index: 3.26 ± 0.1 for the first, 3.54 ± 0.23 for the second.

First: EDFEHNNLSSMNLDFDI [MCD1]
Second: EDGTSASFQIVEEDHTL [RPC19]
The protein stability index of the first is lower: 2.76 ± 0.053 for the first, 3.02 ± 0.16 for the second.

EDHDVHSNESSNETIGE [IRR1] and EDIIKRTSPIDNVSNTH [NUT2] are within error of each other in protein stability index: 3 ± 0.079 for the first, 2.87 ± 0.062 for the second.

EDITEPKPDKPSGRTRG [ESC2] and EDMETQASDPSKKKKNI [RPC53] are within error of each other in protein stability index: 3.07 ± 0.15 for the first, 3.27 ± 0.14 for the second.

Going from EDPNSAAFDEVEYKLTF [DIS3] to EDPVTVEYLTRYVAGVQ [PRE6], the protein stability index rises from 1.18 ± 0.12 to 2.39 ± 0.058.

Compared with EDRNKIHQYLFQEGVVV [RPS10A], EDRNQRIKEMYWKLWID [FAS1] is higher in protein stability index: 2.37 ± 0.064 for the first, 3.17 ± 0.13 for the second.

First: EEAGSPLVYRHELITNI [RPB9]
Second: EEATTEEAGEEEAKEEV [RPS0A]
The protein stability index of the first is higher: 3.17 ± 0.076 for the first, 2.69 ± 0.11 for the second.

Going from EEDFYTVVGNASFGKNL [DSN1] to EEEIKKFDSRIRGILMA [PRP8], the protein stability index rises from 1.99 ± 0.12 to 2.71 ± 0.066.

Going from EEEMAPYYKYLCEEYLV [RPN7] to EEGRAIPGEYITYALSG [RPS21B], the protein stability index rises from 2.12 ± 0.087 to 2.99 ± 0.073.

Going from EEKEEENGDEDEDEDED [QCR6] to EELKDSEINEILARNDE [SNF2], the protein stability index falls from 3.68 ± 0.17 to 3.2 ± 0.18.

Going from EENNYQYGYSGSSAGMN [SNF6] to EEPAKEEAPAPTPAASA [FAS2], the protein stability index rises from 2.22 ± 0.053 to 2.75 ± 0.14.

Going from EEQLDLLSAILDPSKSK [MED11] to EETSHLLTVTPGPRLLY [RPN10], the protein stability index falls from 3.09 ± 0.099 to 2.61 ± 0.06.

EETYEEKPQFKDGETTD [RPO26] and EEYRKQLDKKNELQKFQ [SMC1] are within error of each other in protein stability index: 3.24 ± 0.23 for the first, 3.44 ± 0.22 for the second.

Compared with EEYVINLLKVSVDICNN [ECM29], EFCDEPSVGVKTMKTFV [RPB5] is higher in protein stability index: 2.15 ± 0.064 for the first, 3.15 ± 0.12 for the second.

Compared with EFFNPEIFHLLQPLEEG [SIN4], EFIAAVNNPQEETSHLL [RPN10] is higher in protein stability index: 1.88 ± 0.079 for the first, 2.33 ± 0.12 for the second.

First: EGARMVRELFEMARTKK [RPT1]
Second: EGDIQVLKSYGAAPYAA [RPT1]
The protein stability index of the first is lower: 1.78 ± 0.12 for the first, 2.84 ± 0.095 for the second.

First: EGIKVVDIDDPDMMVDS [SNF2]
Second: EGKKVMAPYLPGSRASS [RPN2]
The protein stability index of the first is higher: 3 ± 0.17 for the first, 2.47 ± 0.065 for the second.

Going from EGLDLLKLCVQELEKRM [PRE1] to EGLIIDTDKLPIKNRTS [SIN4], the protein stability index rises from 2.04 ± 0.095 to 2.79 ± 0.11.

Compared with EGNQGSLQEDVSFDFNG [MED8], EHASLLVRDSKPSKPFN [MED8] is lower in protein stability index: 3.17 ± 0.12 for the first, 2.43 ± 0.057 for the second.

EHGMNAPSVPEFIYLTK [SNF2] and EHHSSVKYASPNLNMKY [FAS2] are within error of each other in protein stability index: 3.21 ± 0.092 for the first, 3.17 ± 0.068 for the second.

Going from EHKTPELISFKERTKSL [YIL149C/MLP2] to EHNPSAHTASVGVVFGS [COR1], the protein stability index rises from 2.85 ± 0.066 to 3.21 ± 0.16.

First: EIARQMRDKSFGRTLAS [RPL12A]
Second: EIELKKLPKVYKRSIVR [SWI1]
The protein stability index of the first is higher: 3.25 ± 0.1 for the first, 2.11 ± 0.069 for the second.

First: EIENATKDIFPLQNIHV [RPS1A]
Second: EIEQLDQYIQKQVQISH [YGL172W/NUP49]
The protein stability index of the first is lower: 2.1 ± 0.086 for the first, 2.91 ± 0.056 for the second.

First: EIEVDEMEVDAEGEEVE [RPN1]
Second: EINNLIQLPASLAATYS [ARP9]
The protein stability index of the first is higher: 3.52 ± 0.084 for the first, 1.59 ± 0.063 for the second.

Going from EIQRTMLELLNQLDGFD [RPT2] to EIYTVEDRPPEYWAQRK [ISW2], the protein stability index rises from 2.83 ± 0.088 to 3.44 ± 0.23.

Going from EKADYERELISNIEQTE [YIL149C/MLP2] to EKFSSFIESIVVDFKNK [SNF12], the protein stability index falls from 3.34 ± 0.079 to 2.69 ± 0.065.

EKKQKTESQDVETRVQN [DPB4] and EKLINNSDDCMMEEIIN [ECM29] are within error of each other in protein stability index: 3.52 ± 0.11 for the first, 3.36 ± 0.11 for the second.

EKLLRHVDSLIEDFVDG [SRB7] and EKLVSDLRLIKVPQQAA [SMC1] are within error of each other in protein stability index: 3.2 ± 0.08 for the first, 3.19 ± 0.18 for the second.

First: EKPLILADYIVEVLLVN [NUT1]
Second: EKTINDLQRTQTLSEKE [YIL149C/MLP2]
The protein stability index of the first is lower: 1.91 ± 0.047 for the first, 2.97 ± 0.071 for the second.

Going from EKYAAAAPAATSAASGD [RPP0] to ELALIEEAYDNPHDTLN [PRP8], the protein stability index rises from 2.47 ± 0.097 to 3.32 ± 0.088.

Compared with ELALLNHWRQNKGRAVY [BRR2], ELDTASRILKAQSRNVE [YGR119C/NUP57] is higher in protein stability index: 1.21 ± 0.21 for the first, 2.35 ± 0.055 for the second.

Compared with ELENFLDNFETKTEALL [YJL041W/NSP1], ELGEQKCQELVTNIRRI [RRP46] is lower in protein stability index: 2.62 ± 0.12 for the first, 2.09 ± 0.072 for the second.

Going from ELHKEGTISKLENKENG [SMC2] to ELKDICSFAVTKSSLND [YML103C/NUP188], the protein stability index rises from 2.01 ± 0.12 to 2.87 ± 0.072.

First: ELLKSSLQKAGSKMEAK [AAR2]
Second: ELMAMNITPRLYTDRSR [RPB2]
The protein stability index of the first is higher: 3.23 ± 0.077 for the first, 1.91 ± 0.12 for the second.

Compared with ELMDRTGLKLYSRITLI [RPP1], ELPKFILSDSPLELSAP [DIS3] is higher in protein stability index: 1.57 ± 0.11 for the first, 2.5 ± 0.095 for the second.

Going from ELQGYIELSVPDRQSMD [SRB5] to ELSDKEIYTVEDRPPEY [ISW2], the protein stability index rises from 1.36 ± 0.23 to 3.34 ± 0.13.

Going from ELSEEKYIVKASSGPRY [RPT4] to ELTDEYLAENPDPNFEN [PRP8], the protein stability index rises from 2.66 ± 0.21 to 3.45 ± 0.077.

ELTLAEQQVKEAEMAYV [SMC4] and ELWRKEQKLQTVLETLL [SMC3] are within error of each other in protein stability index: 3.02 ± 0.1 for the first, 2.9 ± 0.13 for the second.

Compared with EMVKDRGYFITQEEVEL [RPB5], ENALIELKNELAKTKEN [YIL149C/MLP2] is higher in protein stability index: 2.62 ± 0.071 for the first, 2.82 ± 0.087 for the second.

Compared with ENESTNYQYKIQELRKL [MED7], ENGTLLVPPPRTIANQD [RPR2] is higher in protein stability index: 2.25 ± 0.054 for the first, 3.01 ± 0.054 for the second.

First: ENIEPLDPINLPLDSQD [PRP8]
Second: ENLNRNWRGREHWKVRN [BRN1]
The protein stability index of the first is lower: 2.87 ± 0.078 for the first, 3.57 ± 0.11 for the second.

ENPAFLPGTNNNSNSNN [SEC65] and ENPNFWRQFGNRMQISP [GRR1] are within error of each other in protein stability index: 3.12 ± 0.17 for the first, 3.14 ± 0.13 for the second.

First: ENQPFHGIKDIPIGHVH [AAR2]
Second: ENSYLRGLTPQEFFFHA [RPO21]
The protein stability index of the first is higher: 2.79 ± 0.078 for the first, 2.49 ± 0.046 for the second.

First: ENVGTRLLPINVNKKAL [MED11]
Second: ENVILGQMAPIGTGAFD [RPO21]
The protein stability index of the first is higher: 2.87 ± 0.18 for the first, 2.33 ± 0.11 for the second.

First: ENYEGKQDKTLQKVENQ [YIL149C/MLP2]
Second: EPQGAVTHMDQIFVRGS [SMD3]
The protein stability index of the first is higher: 3.2 ± 0.18 for the first, 2.64 ± 0.11 for the second.
